Starred links: 1 amine or outer side, 2 acyl side, 3 side chain; linkers in the order of their positions; H or OH if unused. Positions of bridges follow the written chain, without caps; N, C: chain ends. Groups on a side chain read outwards from the residue. No end group written: not given here. *: point of attachment. C20 diacid = O=C(O)CCCCCCCCCCCCCCCCCCC(=O)*; C18 diacid = O=C(O)CCCCCCCCCCCCCCCCC(=O)*; γGlu = O=C(O)[C@H](CCC(=O)[*:2])N[*:1]; AEEA = NCCOCCOCC(=O)O

For eight molecules, Potency luciferase assay results are on record in patent US20100222269A1 (Novo Nordisk, published 2010).

Amylin 3(a) receptor (human calcitonin receptor (CTa) with RAMP-3) on BHK570 cells, sequence (P30988 25-474): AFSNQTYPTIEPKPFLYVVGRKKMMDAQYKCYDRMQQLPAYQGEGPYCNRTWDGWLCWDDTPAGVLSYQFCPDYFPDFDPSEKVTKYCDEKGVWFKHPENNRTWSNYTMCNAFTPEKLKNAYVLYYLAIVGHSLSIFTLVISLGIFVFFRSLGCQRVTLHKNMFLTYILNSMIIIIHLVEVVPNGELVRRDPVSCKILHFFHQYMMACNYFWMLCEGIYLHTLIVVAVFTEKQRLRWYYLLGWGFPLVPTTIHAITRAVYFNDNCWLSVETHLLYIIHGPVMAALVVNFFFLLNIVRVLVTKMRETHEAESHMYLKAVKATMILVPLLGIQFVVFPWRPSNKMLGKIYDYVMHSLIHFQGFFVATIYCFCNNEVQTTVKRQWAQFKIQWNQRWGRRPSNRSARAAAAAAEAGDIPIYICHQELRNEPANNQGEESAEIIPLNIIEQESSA

This assay concerns the target Amylin 3(a) receptor (human calcitonin receptor (CTa) with RAMP-3) on BHK570 cells (human, UniProt P30988 25-474). Put plainly: cell-based or functional assay.
With KCNTATCATQRLANFLK([AEEA-AEEA-C20 diacid])HSSNNFGPILPPTNVGSNTY-NH2 (disulfide 2-7 (inferred)), the Potency luciferase assay was found to be 0.1 nM.
{C20 diacid-γGlu}-RKCNTATCATQRLANFLVHSSNNFGPILPPTNVGSNTY-NH2 (disulfide 3-8 (inferred)) [N-alpha-[(S)-4-carboxy-4-(19-carboxynonadecanoylamino)butyryl]-Arg-pramlintide (1-37)]: the Potency luciferase assay is 0.2 nM.
With KCNTATCATQRLANFLVHSSK([AEEA-AEEA-C20 diacid])NFGPILPPTNVGSNTY-NH2 (disulfide 2-7 (inferred)) the figure was 0.1 nM.
KCNTATCATQRLANFLVHSSNNFGPILPK([AEEA-AEEA-C20 diacid])TNVGSNTY-NH2 (disulfide 2-7 (inferred)): the Potency luciferase assay stood at 0.2 nM.
The value for KCNTATCATQRLANFLVHSSNNFGK([AEEA-AEEA-C20 diacid])ILPPTNVGSNTY-NH2 (disulfide 2-7 (inferred)) was 0.06 nM; that for KCNTATCATQRLANFLVRSSNNFGK([AEEA-AEEA-C18 diacid])ILPPTNVGSNTY-NH2 (disulfide 2-7 (inferred)) was 0.04 nM; that for {C20 diacid}-EKRKCNTATCATQRLANFLVHSSNNFGPILPPTNVGSNTY-NH2 (disulfide 5-10 (inferred)) [N-alpha-(19-carboxynonadecanoyl)-Glu-Lys-Arg-pramlintide (1-37)] was 0.08 nM.
With {C20 diacid}-EKRCNTATCATQRLANFLVHSSNNFGPILPPTNVGSNTY-NH2 (disulfide 4-9 (inferred)) [N-alpha-(19-carboxynonadecanoyl)-Glu-Lys-[Arg1]-pramlintide (1-37)] the figure was 0.07 nM.
